Measurements reported in patent publication US10077436B2, “Beta-glucosidase enzymes for increased biomass saccharification” (Edeniq, Inc., priority 2013, dated 2018).
Where a chain is given by its changes, count along the chain named. Names may count otherwise.

B1: yEdQ885-BG: improved (modified) in-house beta-glucosidase mutant secreted by yeast strain yEdQ885 (protein)
chain: MRFTLIEAVALTAVSLASADELAYSPPYYPSPWANGQGDWAQAYQRAVDIVSQMTLDEKVNLTTGTGWELELCVGQTGGVPRLGVPGMCLQDSPLGVRDSDYNSAFPAGMNVAATWDKNLAYLRGKAMGQEFSDKGADIQLGPAAGPLGRSPDGGRNWEGFSPDPALSGVLFAETIKGIQDAGVVATAKHYIAYEQEHFRQAPEAQGFGFNISESGSANLDDKTMHELYLWPFADAIRAGAGAVMCSYNQINNSYGCQNSYTLNKLLKAELGFQGFVMSDWAAHHAGVSGALAGLDMSMPGDVDYDSGTSYWGTNLTISVLNGTVPQWRVDDMAVRIMAAYYKVGRDRLWTPPNFSSWTRDECGYKYYYVSEGPFEKVNQYVNVQRNHSELIRRIGADSTVLLKNDGALPLTGKERLVALIGEDAGSNPYGANGCSDRGCDNGTLAMGWGSGTANFPYLVTPEQAISNEVLKHKNGVFTATDNWAIDQIEALAKTASVSLVFVNADSGEGYINVDGNLGDRRNLTLWRNGDNVIKAAASNCNNTIVVIHSVGPVLVNEWYDNPNVTAILWGGLPGQESGNSLADVLYGRVNPGAKSPFTWGKTREAYQDFLVTEPNNGNGAPQEDFVEGVFIDYRGFDKRNETPIYEFGYGLSYTTFNYSNLEVQVLSAPAYEPASGETEAAPTFGEVGNASDYLYPSGLQRITKFIYPWLNGTDLEASSGDASYGQDSSDYLPEGATDGSAQPILPAGGGPGGNPRLYDELIRVSVTIKNTGKVAGDEVPQLYVSLGGPNEPKIVLRQFERITLQPSEETKWSTTLTRRDLANWNVEKQDWEITSYPKMVFVGSSSRKLPLRASLPTVH
modifications: synthetic mutant beta-glucosidase (BG), BG acid/base mutant #8, yEdQ885 -> Y363C/Y375F/A446A/V498V/G510G/Y560Y/Y610F
B2: yEdQ745-BG: wild type Aspergillus niger beta-glucosidase (Accession CAB75696.1, SEQ ID NO:2) secreted by yeast strain yEdQ745 (protein)
chain: B1 chain with C363Y, F375Y, F610Y
modifications: Aspergillus niger; wild type beta-glucosidase (BG)

Assays:
Type in all cases: biochemical
[1] = BG activity assay / kinetics using pNPG substrate; details: all conditions except initial glucose 36 g/L
Experimental: BG activity assay using pNPG is one of the two commonly used standard assays to measure BG activity, which utilizes hydrolysis of p-nitrophenyl-β-D-glucopyranoside (pNPG) by BG into a yellow colored product, p-nitrophenol (pNP), that has a strong absorbance at 405 nm. One pNPG unit is defined as the amount of enzyme that produces 1 μmol of pNP per min. Briefly, to determine BG activity, 25 μL of diluted enzyme in 200 mM sodium acetate buffer (pH 5.0) was mixed with 25 μL of the same buffer and 25 μL of RO water (or glucose solution for the kinetic study) and the mixture was preincubated at 50° C. for 5 min. […] The reaction was then terminated by adding 100 μL of 0.25 M sodium carbonate, and the amount of pNP produced was determined by measuring absorbance at 405 nm using a predetermined calibration curve. […]
To determine the kinetic properties, a competitive inhibition mechanism was hypothesized as proposed in the literature (Chauve et al, 2010; Krogh et al, 2010). […] The turnover number, Kcat, can be calculated by Equation (2), where [Et] is the total amount of enzyme.
Conventionally, linearization methods can be used to determine the kinetic parameters based on Equation (1). […] Thus, Vmax, Km and Ki can be determined simultaneously from this fitting process, and Km/Ki can then be calculated. Kcat can be obtained by Equation (2) and Kcat/Km can be calculated accordingly.

[2] = BG (cellobiase) activity assay / kinetics using cellobiose substrate, HPLC
Experimental: BG activity assay using cellobiose is the other standard assay to measure BG or cellobiase activity, which utilizes hydrolysis of cellobiose by cellobiase into two molecules of glucose, the last step of enzymatic hydrolysis of cellulose. One cellobiase unit (commonly termed as CBU) is defined as the amount of enzyme that converts […] of cellobiose or produces 2 μmol of glucose per min. Briefly, to determine BG activity, 25 μL of diluted enzyme in 50 mM citrate buffer (pH 4.8) equilibrated to 50° C. was mixed with 25 μL cellobiose (or cellobiose/glucose mixture for the kinetic study) to start the reaction. The mixture was incubated at 50° C. for 10 min, and the reaction was terminated by incubating the mixture at 99° C. for 5 min. Different methods are available to measure the glucose produced in the assays. For the kinetic study, HPLC was used. […]
The specific activity used here was determined by the initial velocity approach that is required by implementing Michaelis-Menten model (Copeland, 2000). The specific activity was determined by measuring consumption of cellobiose in the first 10 min of reaction and was expressed as μmol min^−1 mg^−1, where mg^−1 means per mg of total protein. The relative activity was determined based on the maximum activity obtained in the absence of initial glucose inhibition.

[3] = BG supplementation of Celluclast in 48-hour saccharification of filter paper; details: for optimal CBU/FPU ratio (optimal BG dosage): 10% solid loading, 20% Celluclast loading
Experimental: Experimental conditions in this example using filter paper substrate was 10% solid loading and 20% Celluclast loading based on glucan content. Different BG dosage based on CBU:FPU (BG activity/total cellulase activity) was tested.
Enhancement of glucose release (Equation 5) and lift of sugar conversion (Equation 6) was compared among various BGs at the optimal dosage over time in FIG. 8.

[4] = BG supplementation of commercial cellulase preparations in corn stover saccharification; details: added to commercial enzyme preparation, 50° C.
Description: In this experiment, 10% CTecII per gram glucan and 0.5% HtecII per mass solids was used as a control level for high saccharification of pretreated biomass. The relatively low enzyme dose of 3% Genencor® Trio per gram glucan was used as a base enzyme level to observe increases in saccharification from supplementation with BG enzymes. Enzyme doses of 0.5%, 1% and 2% of HtecII were used in a parallel set of reactions to likewise observe increases in saccharification from supplementation with concentrated extract from yEdQ745, yeast expressing wild type BG and another set of samples supplemented with commercial BG. • BG were used from two sources: wild type BG (yEdQ745) and commercial BG (Nozyme product SP-188). • Commercial cellulase preparations: Novozymes CtecII, Novozymes HtecII and Genencor® Trio. • Biomass used for the experiment: For each reaction 3 gms from Run 177 corn stover at 10% final solid concentration. • BG addition: 2 mL of wild type BG concentrated from yEdQ745 (11× concentrated) was added to the respective reaction. • Commercial BG: 1 uL/gm of biomass • Buffer: sodium citrate buffer pH5.0 was used for the reaction • Saccharification temperature: 50° C./24 and 48 hours.

| specific activity towards cellobiose, comparison ([2]; all conditions tested) | Molecule | specific activity towards pNPG, comparison [1] | specific activity towards cellobiose, comparison ([2]; absence of glucose inhibition) | optimal CBU/FPU ratio (optimal BG dosage) [3] | performance in enhancing saccharification, comparison ([3]; optimal BG dosage) | enhancement of sugar release ([3]; optimal BG dosage, up to 48 h) | lift of sugar conversion ([3]; optimal BG dosage, up to 48 h) | effect of BG supplementation on glucose release / glucan to glucose conversion [4] |
| --- | --- | --- | --- | --- | --- | --- | --- | --- |
| – | B1 | higher specific activity towards pNPG than both yEdQ745-BG (wild type) and S-BG | higher specific activity towards cellobiose than both yEdQ745-BG (wild type) and S-BG | 2 | outperformed the other three BGs | more than 50% | more than 13% | – |
| the lowest | B2 | – | – | 1 | – | – | – | dramatically increased |
